According to patent US20220218659:

Target: Human ACLY, His-tagged, bacterially expressed and purified recombinant full length protein (UniProt P53396)
UniProt P53396, sequence (P53396 whole entry): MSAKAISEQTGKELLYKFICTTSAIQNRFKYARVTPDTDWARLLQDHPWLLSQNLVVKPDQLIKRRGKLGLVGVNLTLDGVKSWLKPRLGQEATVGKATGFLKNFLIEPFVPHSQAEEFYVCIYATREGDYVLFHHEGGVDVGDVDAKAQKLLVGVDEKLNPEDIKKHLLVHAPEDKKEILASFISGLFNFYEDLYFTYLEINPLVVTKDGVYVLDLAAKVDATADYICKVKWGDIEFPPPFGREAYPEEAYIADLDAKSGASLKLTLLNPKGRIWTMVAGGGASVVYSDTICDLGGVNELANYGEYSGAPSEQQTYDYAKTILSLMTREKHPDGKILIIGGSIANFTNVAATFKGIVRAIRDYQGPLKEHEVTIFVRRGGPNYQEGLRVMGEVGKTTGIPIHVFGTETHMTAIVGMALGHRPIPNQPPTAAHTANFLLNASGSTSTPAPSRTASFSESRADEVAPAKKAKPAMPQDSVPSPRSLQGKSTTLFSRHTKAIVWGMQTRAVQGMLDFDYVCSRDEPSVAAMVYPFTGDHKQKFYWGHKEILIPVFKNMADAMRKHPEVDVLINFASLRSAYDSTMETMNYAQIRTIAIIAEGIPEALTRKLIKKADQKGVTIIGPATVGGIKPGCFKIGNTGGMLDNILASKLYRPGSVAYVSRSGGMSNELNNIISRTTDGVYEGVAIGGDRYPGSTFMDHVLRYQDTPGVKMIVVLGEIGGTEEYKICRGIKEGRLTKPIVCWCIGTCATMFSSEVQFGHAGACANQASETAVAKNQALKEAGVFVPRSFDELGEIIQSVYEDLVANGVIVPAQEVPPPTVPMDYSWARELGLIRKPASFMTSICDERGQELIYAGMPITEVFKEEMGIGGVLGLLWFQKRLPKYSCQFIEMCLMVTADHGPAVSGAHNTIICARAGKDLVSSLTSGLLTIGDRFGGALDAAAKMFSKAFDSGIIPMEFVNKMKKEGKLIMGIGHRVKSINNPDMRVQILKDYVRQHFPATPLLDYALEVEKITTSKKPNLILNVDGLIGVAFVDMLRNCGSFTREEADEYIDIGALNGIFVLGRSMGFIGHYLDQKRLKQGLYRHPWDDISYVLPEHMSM

For Active recombinant Src kinase, which “ACLY tyrosine residues phosphorylated (phosphoproteomics)” value is on record?
Its value is “The three ACLY tyrosine residues, Y682, Y252, Y227, were common for Lyn and Src”.
